{
  "source": "patent US11939397B2",
  "about": "“ENTPD2 antibodies, combination therapies, and methods of using the antibodies and combination therapies” (Novartis AG, priority 2018, dated 2024)",
  "molecules": {"B1": {"name": "mAb13: anti-mouse ENTPD2 monoclonal antibody, VH SEQ ID NO: 191, VL SEQ ID NO: 202 (antibody, V domains shown)", "VH": "QVQLVQSGAELKQPGQSVKISCKASGYTFTHYGMNWVKQAPGQGLKWMGWINTDTGNPTYADDFKGRFVFSLDTSVSTAYLQISNLKNEDTATYYCVRYGTLYSGYGFFFDSWGQGTLVTVSS", "VL": "DIMMTQSPSSLSVSAGEKATITCKSSQSLFNSNTNKNYLNWYLQKPGQSPKLLFYYASTRHTGVPDRFIGSGSGTDFTLTITSVQDEDLADYYCQQWYSYPWTFGPGTKLEIK"}},
  "key": {"ENTPD2": {"target": "T1, ENTPD2 (Homo sapiens, UniProt Q9Y5L3)", "T1 sequence (Q9Y5L3 1-495)": "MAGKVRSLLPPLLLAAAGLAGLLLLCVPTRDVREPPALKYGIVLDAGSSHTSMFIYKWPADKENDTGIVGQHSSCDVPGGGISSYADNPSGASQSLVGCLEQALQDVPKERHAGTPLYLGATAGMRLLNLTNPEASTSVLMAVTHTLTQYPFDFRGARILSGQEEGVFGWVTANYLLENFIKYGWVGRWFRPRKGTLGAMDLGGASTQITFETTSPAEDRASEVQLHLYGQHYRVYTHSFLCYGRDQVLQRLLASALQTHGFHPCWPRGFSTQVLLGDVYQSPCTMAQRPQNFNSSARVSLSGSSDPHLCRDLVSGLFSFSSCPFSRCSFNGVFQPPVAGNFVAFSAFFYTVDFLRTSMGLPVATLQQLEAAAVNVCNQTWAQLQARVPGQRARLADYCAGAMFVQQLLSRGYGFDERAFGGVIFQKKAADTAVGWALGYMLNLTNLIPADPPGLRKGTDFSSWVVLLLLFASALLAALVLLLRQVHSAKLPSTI", "assay": "FACS binding to human ENTPD2 expressing cells (NIH/3T3)", "set-up": "expressed in transfected cells", "text": "Ten days after fusion, hybridoma plates were screened for the presence of ENTPD2-specific antibodies using flow cytometry to confirm specific binding of candidate antibodies to cell surface-expressed human ENTPD2 using three cell lines: parental NIH/3T3 cells, NIH/3T3 cells stably overexpressing human ENTPD2, and RKO cells (ATCC®), which expresses endogenous human ENTPD2. Cells were rinsed thoroughly with PBS, treated with Accutase (Millipore #SCR005) to lift them from the growth plates, and resuspended in cold PBS. Cells were biotinylated and labeled with a fluorescent dye according to manufacturer's instructions (FluoReporter™ Cell-Surface Biotinylation Kit, Thermo Fisher Scientific Cat #F-20650; PE-Cy7 Steptavidin, ThermoFisher Scientific Cat #SA1012). Cells were resuspended at approximately 1×10^6 cells/ml in FACS buffer (PBS with 2% FBS+0.1% NaN3). In a 384-well plate, 20 μL of hybridoma supernatant was pre-seeded and 20 μL of cell suspension was added. […] Geometric mean fluorescence intensity was calculated on live single cells using FlowJo™ software.\nFACS screening: Specific binding of candidate antibodies to endogenously expressed ENTPD2 was assessed by flow cytometry. […] Geometric mean fluorescence intensity was calculated on live single cells using FlowJo software."}, "cyno ENTPD2": {"test_system": "cyno ENTPD2", "sequence (as listed by the source)": "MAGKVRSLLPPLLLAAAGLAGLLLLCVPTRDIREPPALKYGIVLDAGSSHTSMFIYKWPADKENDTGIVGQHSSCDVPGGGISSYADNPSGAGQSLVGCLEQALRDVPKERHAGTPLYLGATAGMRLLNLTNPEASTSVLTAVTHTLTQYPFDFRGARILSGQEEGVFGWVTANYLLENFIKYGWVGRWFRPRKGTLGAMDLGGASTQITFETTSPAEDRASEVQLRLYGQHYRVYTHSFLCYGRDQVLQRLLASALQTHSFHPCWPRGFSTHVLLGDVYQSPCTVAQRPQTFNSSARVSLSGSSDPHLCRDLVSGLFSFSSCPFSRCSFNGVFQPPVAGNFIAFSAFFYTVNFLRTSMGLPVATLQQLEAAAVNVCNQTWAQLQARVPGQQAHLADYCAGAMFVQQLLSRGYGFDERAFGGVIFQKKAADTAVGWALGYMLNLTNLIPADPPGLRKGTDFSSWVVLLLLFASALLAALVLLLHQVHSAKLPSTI", "assay": "FACS binding to cyno ENTPD2 expressing cells", "set-up": "species or system cynomolgus monkey", "protocol": "FACS screening: Specific binding of candidate antibodies to endogenously expressed ENTPD2 was assessed by flow cytometry. Cells were rinsed thoroughly with 1×PBS and treated with Accutase (Millipore #SCR005) to lift from growth plates and resuspended at approximately 1×10^5 cells/90 μL in 1×FACS buffer (2% FBS+0.1% NaN3 in PBS). In a 96-well U-bottom plate, 10 μL of 10× antibody solution in FACS buffer was pre-seeded and 90 μL of cell suspension was added. Cell were incubated for 30 minutes at 4° C., washed 1× with cold PBS and resuspended in 100 μL of 1:500 secondary antibody 1×FACS buffer (Allophycocyanin conjugated F(ab′)2 goat anti-human IgG, Fcγ specific; Jackson Immunoresearch, Cat #109-136-098). After additional incubation for 15 min at 4° C., cells were washed twice with PBS and resuspended in 100 μL of 1×FACS buffer with 4 μg/mL propidium iodide (Life Technologies, Cat #P3566). Geometric mean fluorescence intensity was calculated on live single cells using FlowJo software."}},
  "data": [
    {"molecule": "B1", "values": [
      {"measurement": "binding to human ENTPD2", "setting": "ENTPD2", "value": "no binding"},
      {"measurement": "binding to cyno ENTPD2", "setting": "cyno ENTPD2", "value": "no binding"}
    ]}
  ]
}
